To fix the notation:
B1: AQP0^CBD peptide L227A (peptide)
peptide: LFPRAKSVSERLSILKGSRP
B2: AQP0^CBD peptide V230A (peptide)
peptide: LFPRLKSASERLSILKGSRP
B3: AQP0^CBD peptide L234A (peptide)
peptide: LFPRLKSVSERASILKGSRP
B4: AQP0^CBD peptide L237A (peptide)
peptide: LFPRLKSVSERLSIAKGSRP

The source of these data is publication PMC3766450 (Nature structural & molecular biology, 2013).

For orientation: stoichiometry N means the number of molecules, sites or subunits per partner or assembly.

The experiment has as its target vertebrate calmodulin (CaM) (UniProt P0DP23). Briefly: ITC.
Turning to B1, the “stoichiometry N” value amounted to 1 peptide per CaM.
As to B2, the “stoichiometry N” value is 1 peptide per CaM.
As to B3, the “stoichiometry N” value came to 2 peptides per CaM.
As to B4, the “stoichiometry N” value turned out to be 2 peptides per CaM.
